# ChEMBL document CHEMBL2074194
# Assays:
# [1] = substrate: CC[N+](CC)(CC)CC; assay: cells, lysate or membranes named
# [2] = substrate: C[N+](C)(C)CCO; assay: cells, lysate or membranes named
protein,measurement,setting,value
Solute carrier family 22 member 2 (Rattus norvegicus) (protein) MSTVDDILEHIGEFHLFQKQTFFLLALLSGAFTPIYVGIVFLGFTPDHHCWSPGAAKLSQRCGWSQAEELNYTVPGLGPSDEASFLSQCMRYEVDWNQSTLDCVDPLSSLAADRNQLPLGPCEHGWVYNTPGSSIVTEFNLVCAHSWMLDLFQSVVNVGFFIGAMMIGYLADRFGRKFCLLVTILINAISGALMAISPNYAWMLVFRFLQGLVSKAGWLIGYILITEFVGLGYRRMVGICYQIAFTVGLLILAGVAYVIPNWRWLQFAVTLPNFCFLLYFWCIPESPRWLISQNKIVKAMKIIKHIAKKNGKSVPVSLQNLTPDEDAGKKLNPSFLDLVRTPQIRKHTLILMYNWFTSSVLYQGLIMHMGLAGDNIYLDFFYSALVEFPAAFIIILTIDRVGRRYPWAVSNMVAGAACLASVFIPDDLQWLKITIACLGRMGITMAYEMVCLVNAELYPTYIRNLGVLVCSSMCDIGGIITPFLVYRLTDIWMEFPLVVFAVVGLVAGALVLLLPETKGKALPETIEDAENMQRPRKKKEKRIYLQVKQADRPLS,Km,[1],160 µM
same,Km,[2],2000 µM
